Test results: patent US12679878B2, “CRF2 receptor agonists and their use in therapy” (SANOFI, priority 2020, dated 2026)
Starred links: 1 amine or outer side, 2 acyl side, 3 side chain; linkers in the order of their positions; H or OH if unused. Non-standard residues stand in square brackets, D forms with d. Groups on a side chain read outwards from the residue. No end group written: not given here. *: point of attachment. C20 diacid = O=C(O)CCCCCCCCCCCCCCCCCCC(=O)*; C18 diacid = O=C(O)CCCCCCCCCCCCCCCCC(=O)*; γGlu = O=C(O)[C@H](CCC(=O)[*:2])N[*:1]; Palmitoyl = CCCCCCCCCCCCCCCC(=O)*; AEEA = NCCOCCOCC(=O)O; Aib = CC(C)(N)C(=O)O

B1: SEQ ID NO: 173 (peptide)
peptide: IVLSLD[dV]PIKLK([AEEA-AEEA-γGlu-C20 diacid])QILLKQERQK[Aib]QREQAEKNKQILAQV-NH2
modifications: N-terminus assumed
SMILES: CC[C@H](C)[C@H](N)C(=O)N[C@H](C(=O)N[C@@H](CC(C)C)C(=O)N[C@@H](CO)C(=O)N[C@@H](CC(C)C)C(=O)N[C@@H](CC(=O)O)C(=O)N[C@@H](C(=O)N1CCC[C@H]1C(=O)N[C@H](C(=O)N[C@@H](CCCCN)C(=O)N[C@@H](CC(C)C)C(=O)N[C@@H](CCCCNC(=O)COCCOCCNC(=O)COCCOCCNC(=O)CC[C@H](NC(=O)CCCCCCCCCCCCCCCCCCC(=O)O)C(=O)O)C(=O)N[C@@H](CCC(N)=O)C(=O)N[C@H](C(=O)N[C@@H](CC(C)C)C(=O)N[C@@H](CC(C)C)C(=O)N[C@@H](CCCCN)C(=O)N[C@@H](CCC(N)=O)C(=O)N[C@@H](CCC(=O)O)C(=O)N[C@@H](CCCNC(=N)N)C(=O)N[C@@H](CCC(N)=O)C(=O)N[C@@H](CCCCN)C(=O)NC(C)(C)C(=O)N[C@@H](CCC(N)=O)C(=O)N[C@@H](CCCNC(=N)N)C(=O)N[C@@H](CCC(=O)O)C(=O)N[C@@H](CCC(N)=O)C(=O)N[C@@H](C)C(=O)N[C@@H](CCC(=O)O)C(=O)N[C@@H](CCCCN)C(=O)N[C@@H](CC(N)=O)C(=O)N[C@@H](CCCCN)C(=O)N[C@@H](CCC(N)=O)C(=O)N[C@H](C(=O)N[C@@H](CC(C)C)C(=O)N[C@@H](C)C(=O)N[C@@H](CCC(N)=O)C(=O)N[C@H](C(N)=O)C(C)C)[C@@H](C)CC)[C@@H](C)CC)[C@@H](C)CC)C(C)C)C(C)C
B2: SEQ ID NO: 174 (peptide)
peptide: IVLSLD[dV]PIKLK([AEEA-AEEA-γGlu-γGlu-C18 diacid])QILLKQARQK[Aib]QRAQAEKNKRILERV-NH2
modifications: N-terminus assumed
SMILES: CC[C@H](C)[C@H](N)C(=O)N[C@H](C(=O)N[C@@H](CC(C)C)C(=O)N[C@@H](CO)C(=O)N[C@@H](CC(C)C)C(=O)N[C@@H](CC(=O)O)C(=O)N[C@@H](C(=O)N1CCC[C@H]1C(=O)N[C@H](C(=O)N[C@@H](CCCCN)C(=O)N[C@@H](CC(C)C)C(=O)N[C@@H](CCCCNC(=O)COCCOCCNC(=O)COCCOCCNC(=O)CC[C@H](NC(=O)CC[C@H](NC(=O)CCCCCCCCCCCCCCCCC(=O)O)C(=O)O)C(=O)O)C(=O)N[C@@H](CCC(N)=O)C(=O)N[C@H](C(=O)N[C@@H](CC(C)C)C(=O)N[C@@H](CC(C)C)C(=O)N[C@@H](CCCCN)C(=O)N[C@@H](CCC(N)=O)C(=O)N[C@@H](C)C(=O)N[C@@H](CCCNC(=N)N)C(=O)N[C@@H](CCC(N)=O)C(=O)N[C@@H](CCCCN)C(=O)NC(C)(C)C(=O)N[C@@H](CCC(N)=O)C(=O)N[C@@H](CCCNC(=N)N)C(=O)N[C@@H](C)C(=O)N[C@@H](CCC(N)=O)C(=O)N[C@@H](C)C(=O)N[C@@H](CCC(=O)O)C(=O)N[C@@H](CCCCN)C(=O)N[C@@H](CC(N)=O)C(=O)N[C@@H](CCCCN)C(=O)N[C@@H](CCCNC(=N)N)C(=O)N[C@H](C(=O)N[C@@H](CC(C)C)C(=O)N[C@@H](CCC(=O)O)C(=O)N[C@@H](CCCNC(=N)N)C(=O)N[C@H](C(N)=O)C(C)C)[C@@H](C)CC)[C@@H](C)CC)[C@@H](C)CC)C(C)C)C(C)C
B3: SEQ ID NO: 175 (peptide)
peptide: IVLSLD[dV]PIKLK([AEEA-AEEA-γGlu-C20 diacid])QILLKQARQK[Aib]QRAQAEKNKRILERV-NH2
modifications: N-terminus assumed
SMILES: CC[C@H](C)[C@H](N)C(=O)N[C@H](C(=O)N[C@@H](CC(C)C)C(=O)N[C@@H](CO)C(=O)N[C@@H](CC(C)C)C(=O)N[C@@H](CC(=O)O)C(=O)N[C@@H](C(=O)N1CCC[C@H]1C(=O)N[C@H](C(=O)N[C@@H](CCCCN)C(=O)N[C@@H](CC(C)C)C(=O)N[C@@H](CCCCNC(=O)COCCOCCNC(=O)COCCOCCNC(=O)CC[C@H](NC(=O)CCCCCCCCCCCCCCCCCCC(=O)O)C(=O)O)C(=O)N[C@@H](CCC(N)=O)C(=O)N[C@H](C(=O)N[C@@H](CC(C)C)C(=O)N[C@@H](CC(C)C)C(=O)N[C@@H](CCCCN)C(=O)N[C@@H](CCC(N)=O)C(=O)N[C@@H](C)C(=O)N[C@@H](CCCNC(=N)N)C(=O)N[C@@H](CCC(N)=O)C(=O)N[C@@H](CCCCN)C(=O)NC(C)(C)C(=O)N[C@@H](CCC(N)=O)C(=O)N[C@@H](CCCNC(=N)N)C(=O)N[C@@H](C)C(=O)N[C@@H](CCC(N)=O)C(=O)N[C@@H](C)C(=O)N[C@@H](CCC(=O)O)C(=O)N[C@@H](CCCCN)C(=O)N[C@@H](CC(N)=O)C(=O)N[C@@H](CCCCN)C(=O)N[C@@H](CCCNC(=N)N)C(=O)N[C@H](C(=O)N[C@@H](CC(C)C)C(=O)N[C@@H](CCC(=O)O)C(=O)N[C@@H](CCCNC(=N)N)C(=O)N[C@H](C(N)=O)C(C)C)[C@@H](C)CC)[C@@H](C)CC)[C@@H](C)CC)C(C)C)C(C)C
B4: SEQ ID NO: 176 (peptide)
peptide: IVLSLD[dV]PIKLK([AEEA-AEEA-γGlu-γGlu-C18 diacid])QILLKQERQKKQRQQAEKNKQILAQV-NH2
modifications: N-terminus assumed
SMILES: CC[C@H](C)[C@H](N)C(=O)N[C@H](C(=O)N[C@@H](CC(C)C)C(=O)N[C@@H](CO)C(=O)N[C@@H](CC(C)C)C(=O)N[C@@H](CC(=O)O)C(=O)N[C@@H](C(=O)N1CCC[C@H]1C(=O)N[C@H](C(=O)N[C@@H](CCCCN)C(=O)N[C@@H](CC(C)C)C(=O)N[C@@H](CCCCNC(=O)COCCOCCNC(=O)COCCOCCNC(=O)CC[C@H](NC(=O)CC[C@H](NC(=O)CCCCCCCCCCCCCCCCC(=O)O)C(=O)O)C(=O)O)C(=O)N[C@@H](CCC(N)=O)C(=O)N[C@H](C(=O)N[C@@H](CC(C)C)C(=O)N[C@@H](CC(C)C)C(=O)N[C@@H](CCCCN)C(=O)N[C@@H](CCC(N)=O)C(=O)N[C@@H](CCC(=O)O)C(=O)N[C@@H](CCCNC(=N)N)C(=O)N[C@@H](CCC(N)=O)C(=O)N[C@@H](CCCCN)C(=O)N[C@@H](CCCCN)C(=O)N[C@@H](CCC(N)=O)C(=O)N[C@@H](CCCNC(=N)N)C(=O)N[C@@H](CCC(N)=O)C(=O)N[C@@H](CCC(N)=O)C(=O)N[C@@H](C)C(=O)N[C@@H](CCC(=O)O)C(=O)N[C@@H](CCCCN)C(=O)N[C@@H](CC(N)=O)C(=O)N[C@@H](CCCCN)C(=O)N[C@@H](CCC(N)=O)C(=O)N[C@H](C(=O)N[C@@H](CC(C)C)C(=O)N[C@@H](C)C(=O)N[C@@H](CCC(N)=O)C(=O)N[C@H](C(N)=O)C(C)C)[C@@H](C)CC)[C@@H](C)CC)[C@@H](C)CC)C(C)C)C(C)C
B5: SEQ ID NO: 21 (peptide)
peptide: IVLSLD[dV]PTKLK([γGlu-Palmitoyl])QKLLKQERQRKE[Aib]EQAEKNKRILERV-NH2
modifications: N-terminus assumed
SMILES: CCCCCCCCCCCCCCCC(=O)N[C@@H](CCC(=O)NCCCC[C@H](NC(=O)[C@H](CC(C)C)NC(=O)[C@H](CCCCN)NC(=O)[C@@H](NC(=O)[C@@H]1CCCN1C(=O)[C@H](NC(=O)[C@H](CC(=O)O)NC(=O)[C@H](CC(C)C)NC(=O)[C@H](CO)NC(=O)[C@H](CC(C)C)NC(=O)[C@@H](NC(=O)[C@@H](N)[C@@H](C)CC)C(C)C)C(C)C)[C@@H](C)O)C(=O)N[C@@H](CCC(N)=O)C(=O)N[C@@H](CCCCN)C(=O)N[C@@H](CC(C)C)C(=O)N[C@@H](CC(C)C)C(=O)N[C@@H](CCCCN)C(=O)N[C@@H](CCC(N)=O)C(=O)N[C@@H](CCC(=O)O)C(=O)N[C@@H](CCCNC(=N)N)C(=O)N[C@@H](CCC(N)=O)C(=O)N[C@@H](CCCNC(=N)N)C(=O)N[C@@H](CCCCN)C(=O)N[C@@H](CCC(=O)O)C(=O)NC(C)(C)C(=O)N[C@@H](CCC(=O)O)C(=O)N[C@@H](CCC(N)=O)C(=O)N[C@@H](C)C(=O)N[C@@H](CCC(=O)O)C(=O)N[C@@H](CCCCN)C(=O)N[C@@H](CC(N)=O)C(=O)N[C@@H](CCCCN)C(=O)N[C@@H](CCCNC(=N)N)C(=O)N[C@H](C(=O)N[C@@H](CC(C)C)C(=O)N[C@@H](CCC(=O)O)C(=O)N[C@@H](CCCNC(=N)N)C(=O)N[C@H](C(N)=O)C(C)C)[C@@H](C)CC)C(=O)O
B6: SEQ ID NO: 177 (peptide)
peptide: IVLSLD[dV]PIKLK([AEEA-AEEA-γGlu-γGlu-C20 diacid])QILLKQERQKKQRQQAEKNKQILAQV-NH2
modifications: N-terminus assumed
SMILES: CC[C@H](C)[C@H](N)C(=O)N[C@H](C(=O)N[C@@H](CC(C)C)C(=O)N[C@@H](CO)C(=O)N[C@@H](CC(C)C)C(=O)N[C@@H](CC(=O)O)C(=O)N[C@@H](C(=O)N1CCC[C@H]1C(=O)N[C@H](C(=O)N[C@@H](CCCCN)C(=O)N[C@@H](CC(C)C)C(=O)N[C@@H](CCCCNC(=O)COCCOCCNC(=O)COCCOCCNC(=O)CC[C@H](NC(=O)CC[C@H](NC(=O)CCCCCCCCCCCCCCCCCCC(=O)O)C(=O)O)C(=O)O)C(=O)N[C@@H](CCC(N)=O)C(=O)N[C@H](C(=O)N[C@@H](CC(C)C)C(=O)N[C@@H](CC(C)C)C(=O)N[C@@H](CCCCN)C(=O)N[C@@H](CCC(N)=O)C(=O)N[C@@H](CCC(=O)O)C(=O)N[C@@H](CCCNC(=N)N)C(=O)N[C@@H](CCC(N)=O)C(=O)N[C@@H](CCCCN)C(=O)N[C@@H](CCCCN)C(=O)N[C@@H](CCC(N)=O)C(=O)N[C@@H](CCCNC(=N)N)C(=O)N[C@@H](CCC(N)=O)C(=O)N[C@@H](CCC(N)=O)C(=O)N[C@@H](C)C(=O)N[C@@H](CCC(=O)O)C(=O)N[C@@H](CCCCN)C(=O)N[C@@H](CC(N)=O)C(=O)N[C@@H](CCCCN)C(=O)N[C@@H](CCC(N)=O)C(=O)N[C@H](C(=O)N[C@@H](CC(C)C)C(=O)N[C@@H](C)C(=O)N[C@@H](CCC(N)=O)C(=O)N[C@H](C(N)=O)C(C)C)[C@@H](C)CC)[C@@H](C)CC)[C@@H](C)CC)C(C)C)C(C)C

What follows are binders tested against human corticotropin-releasing factor 2α (CRF2 α receptor) (human), Q13324 (assay: cell-based or functional assay).
human corticotropin-releasing factor 2α (CRF2 α receptor) (human), Q13324, sequence (Q13324 20-411): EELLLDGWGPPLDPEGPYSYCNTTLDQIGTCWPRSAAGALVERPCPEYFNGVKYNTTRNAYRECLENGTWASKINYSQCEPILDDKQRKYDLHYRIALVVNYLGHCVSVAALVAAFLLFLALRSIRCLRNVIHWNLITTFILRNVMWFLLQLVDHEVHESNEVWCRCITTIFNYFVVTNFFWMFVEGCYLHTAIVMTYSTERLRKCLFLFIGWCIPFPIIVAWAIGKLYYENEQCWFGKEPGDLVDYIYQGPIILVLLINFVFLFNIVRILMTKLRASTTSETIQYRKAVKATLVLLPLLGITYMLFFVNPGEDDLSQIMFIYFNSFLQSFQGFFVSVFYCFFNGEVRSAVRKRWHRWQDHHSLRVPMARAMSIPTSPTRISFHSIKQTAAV

Row | Binder | EC50 [nM], 0% HSA [nM] | EC50 [nM], 0.1% HSA [nM]
1 | B1 | 0.03 | 3.49
2 | B2 | 0.07 | 0.88
3 | B3 | 0.06 | 3.64
4 | B4 | 0.11 | 3.05
5 | B5 | 0.02 | –
6 | B6 | 0.07 | 5.19
